Experimental data as given in publication doi:10.1101/433532.

Molecular target: recombinant CSN^ΔCSNAP complex (eight subunits, WT CSN5) (UniProt Q13098)
Test: native MS

stoichiometry N: 1
Substance: CSNAP, recombinant subunit co-expressed in the CSN complex (natural protein)
